Laboratory results reported in PMC5426085 (Frontiers in Microbiology, 2017).

B1: Staphylococcus aureus FtsZ (natural protein, UniProt P0A031 1-390, looked up)
chain: MLEFEQGFNHLATLKVIGVGGGGNNAVNRMIDHGMNNVEFIAINTDGQALNLSKAESKIQIGEKLTRGLGAGANPEIGKKAAEESREQIEDAIQGADMVFVTSGMGGGTGTGAAPVVAKIAKEMGALTVGVVTRPFSFEGRKRQTQAAAGVEAMKAAVDTLIVIPNDRLLDIVDKSTPMMEAFKEADNVLRQGVQGISDLIAVSGEVNLDFADVKTIMSNQGSALMGIGVSSGENRAVEAAKKAISSPLLETSIVGAQGVLMNITGGESLSLFEAQEAADIVQDAADEDVNMIFGTVINPELQDEIVVTVIATGFDDKPTSHGRKSGSTGFGTSVNTSSNATSKDESFTSNSSNAQATDSVSERTHTTKEDDIPSFIRNREERRSRRTRR
notes: cell division protein FtsZ, Staphylococcus aureus; also called SaFtsZ; filamenting temperature-sensitive mutant Z; source: recombinant; cloned, overexpressed, and purified as described previously (Sun et al., 2014; Li et al., 2015)
B2: E. coli FtsZ (natural protein, UniProt P0A9A6 1-383, looked up)
chain: MFEPMELTNDAVIKVIGVGGGGGNAVEHMVRERIEGVEFFAVNTDAQALRKTAVGQTIQIGSGITKGLGAGANPEVGRNAADEDRDALRAALEGADMVFIAAGMGGGTGTGAAPVVAEVAKDLGILTVAVVTKPFNFEGKKRMAFAEQGITELSKHVDSLITIPNDKLLKVLGRGISLLDAFGAANDVLKGAVQGIAELITRPGLMNVDFADVRTVMSEMGYAMMGSGVASGEDRAEEAAEMAISSPLLEDIDLSGARGVLVNITAGFDLRLDEFETVGNTIRAFASDNATVVIGTSLDPDMNDELRVTVVATGIGMDKRPEITLVTNKQVQQPVMDRYQQHGMAPLTQEQKPVAKVVNDNAPQTAKEPDYLDIPAFLRKQAD
notes: cell division protein FtsZ, Escherichia coli; also called EcFtsZ; source: recombinant; cloned, overexpressed, and purified as described previously (Sun et al., 2014; Li et al., 2015)

Columns and labels:
FtsZ (SaFtsZ) = FtsZ (SaFtsZ) (Staphylococcus aureus, UniProt P0A031); experiment: GTPase assay (phosphate release), […]° light scattering polymerization, TEM, far-UV CD with recombinant purified FtsZ; assay type: biochemical; settings: read-out: % inhibition of GTPase at 8 μg/mL (~15 μM)
[1] = molecular target: the molecule itself; experiment: 90° light scattering of polymerization; FtsZ 6 μM in 20 mM Tris pH 7.4, 0.01% Triton X-100; started with 20 mM KCl, 5 mM MgCl2, 1 mM GTP; 37°C; 600 nm; without and with compound 1 (1 to 6 μg/mL); self-assembly into polymers

| Molecule | inhibition at 8 µg/mL (FtsZ (SaFtsZ)) [%] | binding result [1] |
| --- | --- | --- |
| CN1/C(=C/c2cc(/C=C/c3ccc(O)cc3)[n+](C)c3ccccc23)Sc2ccccc21 [compound 1, 2-((E)-4-hydroxystyryl)-1-methyl-4-((Z)-(3-methylbenzo[d]thiazol-2(3H)-ylidene)methyl)quinolin-1-ium iodide] | 58 | – |
| B1 | – | binds |
| B2 | – | binds |
